The nature of data set [1]: Soluble aggregates of transiently expressed antibodies. In kind it is physicochemical. Conditions: Protein A purified antibody. An excerpt: The protein yield of these antibodies, their levels of soluble aggregates and their binding affinity to the immunogen (J1-DE3) are illustrated in (Table 6).
The target in data set [2] is T1, N1 binding to cell surface expressed hJ1 (Homo sapiens, UniProt P78504).
T1 construct: cell expressed full length human J1 (hJ1; HEK293 transfectants); expressed in transfected cells; host or cells: HEK293
Briefly: Notch binding blocking assay (FACS): N1 EGF11-13 beads staining human J1-expressing cells. Set-up: key: +: Complete blocking; X: No blocking. On the procedure:
To functionally identify mAbs with the capacity to disrupt the J1-N1 protein:protein interaction, hybridoma culture supernatants were tested in a FACS-based binding assay. Biotinylated soluble human N1 EGF11-13 recombinant protein was bound to avidin-coated beads and used to stain J1-expressing cells in the presence or absence of each mAb that recognised cell surface hJ1 by FACS. […] The four blocking antibodies of the invention were also able to block the binding of recombinant […] to a biotin-tagged J1 DSL-EGF3 recombinant protein in an ELISA assay (FIG. 1B). […] The four blocking mAbs of the invention were purified from serum-free culture supernatants and equal concentrations of purified antibodies were used to compare their activity in subsequent assays (unless hybridoma supernatant was specified). Sequence conservation across the DSL domain raised the possibility that the J1 mAbs may also be able to bind the Jagged 2 (J2) protein. Antibody binding specificity was initially tested by immunocytochemical labelling of cytospin samples of hJ1 and hJ2 transfectants (FIG. 2). All antibodies stained J1 transfectants but none stained the J2 transfected cells, and J2 expression in the same experiment was confirmed using a commercial anti-J2 antibody. The specificity of the purified mAbs was further investigated in mammalian cells transfected with hJ2, human Delta-like ligand 4 (hDLL4), or mJ1 (FIG. 3). Transfectants were FACS stained with 10 μg/ml of each of the four blocking mAbs.
To test the blocking efficiencies of the J1 mAbs, purified mAbs were titrated to determine the concentration required to block recombinant N1 binding to cell surface expressed hJ1. Beads coated with a bacterially-expressed N1 EGF11-13 protein were used to stain the hJ1-expressing cells in the presence of various concentrations of mAbs.
The FACS-based binding assay using biotinylated soluble human N1 EGF11-13 recombinant protein bound to avidin-coated fluorescent beads to stain J1-expressing cells was performed using a dilution series of each variant mAb to test their ability to block J1 binding to N1 by FACS (Table 7). […] Thus 12/16 J1-65D1 variants V1-12 and all J1-183D variants have the desired binding and blocking activity.
Human N1 EGF11-13 (411-526) was expressed in E. coli, refolded in vitro and labelled with purple fluorescent avidin-coated beads (Spherotech) as previously described. HEK293 cells transfected with human J1 or B16F10 cells transfected with mouse J1 were stained with N1 fluorescent beads in the presence of J1 antibody supernatants or purified antibody (murine, chimeric or humanised) diluted in HBBS/10% FCS. Cells were washed and re-suspended in staining buffer before being analysed with a FACSCalibur and data analysis with CellQuest. HEK293 cells transfected with human Jagged 2 and B16F10 cells transfected with human and mouse DLL4 were stained similarly to test blocking specificity.

Where [3] appears, read: final antibody concentration 2.0 μg/ml.
Where [4] appears, read: final antibody concentration 1.0 μg/ml.
Where [5] appears, read: final antibody concentration 0.2 μg/ml.
Where [6] appears, read: final antibody concentration 0.4 μg/ml.
[7] abbreviates: final antibody concentration 0.6 μg/ml.

Twelve molecules from patent US9725518B2, “Antibodies that bind to Jagged 1” (Cancer Research Technology Limited, priority 2013, dated 2017) can be followed below.

Numbering of substitutions follows the chain as printed.

T1 sequence (P78504 34-1218): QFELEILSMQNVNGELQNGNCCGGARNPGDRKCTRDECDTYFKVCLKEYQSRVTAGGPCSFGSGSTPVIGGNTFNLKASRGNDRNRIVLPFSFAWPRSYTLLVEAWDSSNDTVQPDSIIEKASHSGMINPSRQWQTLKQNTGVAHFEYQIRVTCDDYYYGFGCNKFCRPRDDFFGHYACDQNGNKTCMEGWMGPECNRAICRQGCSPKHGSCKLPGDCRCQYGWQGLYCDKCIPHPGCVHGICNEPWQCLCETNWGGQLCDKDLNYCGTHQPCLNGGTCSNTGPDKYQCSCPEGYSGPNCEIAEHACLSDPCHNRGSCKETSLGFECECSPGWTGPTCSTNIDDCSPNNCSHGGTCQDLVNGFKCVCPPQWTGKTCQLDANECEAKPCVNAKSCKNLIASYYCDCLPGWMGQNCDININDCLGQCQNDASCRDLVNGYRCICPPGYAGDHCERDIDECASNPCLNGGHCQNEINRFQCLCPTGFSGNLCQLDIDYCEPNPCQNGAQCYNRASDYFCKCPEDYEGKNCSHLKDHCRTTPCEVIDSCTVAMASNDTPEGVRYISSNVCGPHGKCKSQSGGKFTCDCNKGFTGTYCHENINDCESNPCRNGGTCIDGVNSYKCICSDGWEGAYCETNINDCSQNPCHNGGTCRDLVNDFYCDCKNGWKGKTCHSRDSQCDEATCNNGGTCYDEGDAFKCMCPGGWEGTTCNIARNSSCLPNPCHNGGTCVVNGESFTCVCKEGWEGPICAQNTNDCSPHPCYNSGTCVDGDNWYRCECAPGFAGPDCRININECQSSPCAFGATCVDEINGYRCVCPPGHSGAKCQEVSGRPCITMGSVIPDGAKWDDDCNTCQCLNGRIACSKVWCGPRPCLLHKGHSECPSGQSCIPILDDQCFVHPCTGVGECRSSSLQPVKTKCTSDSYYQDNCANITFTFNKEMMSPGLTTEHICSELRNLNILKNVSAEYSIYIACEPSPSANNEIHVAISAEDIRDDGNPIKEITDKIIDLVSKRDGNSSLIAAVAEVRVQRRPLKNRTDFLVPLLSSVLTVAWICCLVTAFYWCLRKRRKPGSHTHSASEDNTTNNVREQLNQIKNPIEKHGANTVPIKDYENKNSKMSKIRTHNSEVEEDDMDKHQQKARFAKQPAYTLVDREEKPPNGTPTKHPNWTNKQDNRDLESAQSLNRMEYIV

B1: J1-65D variant 13: humanised/de-immunised J1-65D: J1-65D_VL_4 + J1-65D_VH_1 (antibody, V domains shown)
VH: QVQLVQSGAELKKPGSSVKVSCKASGYTFTDYEMHWVRQAPGQGLEWMGAIQPGGGGTAYNQKFKGRVTLTADKSTSTAYMELSSLRSEDTAVYYCTRRGYDDYPFAYWGQGTLVTVSS
VL: DIQMTQSPSSLSASVGDRVTITCRASQGIHNYLAWYQQKPGKAPKLLIYNAKTLADAVPSRFSGSGSGTDYTLTISSLQPEDFATYYCQQFWSAPWTFGQGTKLEIK
On to B1, for which the “% soluble aggregate” value in data set [1] turned out to be 2.82%. Further, the “Blocking of Notch1 binding to cell surface Jagged 1” value (“Blocking of Notch1 binding” below) in data set [2] (setting [3]) was “Partial”.

B2: J1-65D variant 16: humanised/de-immunised J1-65D: J1-65D_VL_4 + J1-65D_VH_4 (antibody, V domains shown)
VH: B1 VH with L11V, N61A, K65Q, L70I
VL: B1 VL
Take B2: the “% soluble aggregate” value in data set [1] came out at 5.60%. In addition, the “Blocking of Notch1 binding” value in data set [2] (setting [4]) is “X”; in data set [2] (setting [3]) it was “Partial”.

B3: J1-65D variant 14: humanised/de-immunised J1-65D: J1-65D_VL_4 + J1-65D_VH_2 (antibody, V domains shown)
VH: B1 VH with N61A
VL: B1 VL
Consider B3, for which the “% soluble aggregate” value in data set [1] was 6.61%. For the same molecule, the “Blocking of Notch1 binding” value is reported as “X” in data set [2] (setting [4]) and “Partial” in data set [2] (setting [3]).

B4: J1-65D variant 15: humanised/de-immunised J1-65D: J1-65D_VL_4 + J1-65D_VH_3 (antibody, V domains shown)
VH: B1 VH with L11V, N61A, K65Q
VL: B1 VL
For the molecule B4, the “% soluble aggregate” value in data set [1] was determined as 5.29%. For the same molecule, the “Blocking of Notch1 binding” value in data set [2] (setting [4]) is “X”; in data set [2] (setting [3]), “Partial”.

B5: J1-65D variant 1: humanised/de-immunised J1-65D: J1-65D_VL_1 + J1-65D_VH_1 (antibody, V domains shown)
VH: QVQLVQSGAELKKPGSSVKVSCKASGYTFTDYEMHWVRQAPGQGLEWMGAIQPGGGGTAYNQKFKGRVTLTADKSTSTAYMELSSLRSEDTAVYYCTRRGYDDYPFAYWGQGTLVTVSSASTKGP
VL: DIQMTQSPSSLSASVGDRVTITCRASGNIHNYLAWYQQKPGKAPKLLIYNAKTLADDVPSRFSGSGSGTDYTLTISSLQPEDFATYYCQHFWSAPWTFGGGTKLEIKRT
Consider B5, for which, in data set [1], the “% soluble aggregate” value was 0%. Besides, the “Blocking of Notch1 binding” value in data set [2] (setting [5]) is “X”; in data set [2] (setting [6]), “+ (Complete blocking)”; in data set [2] (setting [7]), “+ (Complete blocking)”; in data set [2] (setting [4]), “+ (Complete blocking)”.

B6: J1-65D variant 7: humanised/de-immunised J1-65D: J1-65D_VL_2 + J1-65D_VH_3 (antibody, V domains shown)
VH: B5 VH with L11V, N61A, K65Q
VL: B5 VL with D57A
For B6, the “% soluble aggregate” value in data set [1] is 0%. In addition, the “Blocking of Notch1 binding” value in data set [2] (setting [5]) was “X”; in data set [2] (setting [6]) it was “+ (Complete blocking)”; in data set [2] (setting [7]), “+ (Complete blocking)”; in data set [2] (setting [4]) it was “+ (Complete blocking)”.

B7: J1-65D variant 11: humanised/de-immunised J1-65D: J1-65D_VL_3 + J1-65D_VH_3 (antibody, V domains shown)
VH: B5 VH with L11V, N61A, K65Q
VL: B5 VL with D57A, G100Q
For the molecule B7, the “% soluble aggregate” value in data set [1] came out at 1.00%. For the same molecule, the “Blocking of Notch1 binding” value in data set [2] (setting [5]) was “X”; in data set [2] (setting [6]), “+ (Complete blocking)”; in data set [2] (setting [7]), “+ (Complete blocking)”; in data set [2] (setting [4]), “+ (Complete blocking)”.

B8: J1-65D variant 10: humanised/de-immunised J1-65D: J1-65D_VL_3 + J1-65D_VH_2 (antibody, V domains shown)
VH: B5 VH with N61A
VL: B5 VL with D57A, G100Q
As for B8, in data set [1], the “% soluble aggregate” value is given as 0.59%. Also, the “Blocking of Notch1 binding” value in data set [2] (setting [5]) is given as “X”; in data set [2] (setting [6]) it was “+ (Complete blocking)”; in data set [2] (setting [7]), “+ (Complete blocking)”; in data set [2] (setting [4]), “+ (Complete blocking)”.

B9: J1-65D variant 2: humanised/de-immunised J1-65D: J1-65D_VL_1 + J1-65D_VH_2 (antibody, V domains shown)
VH: B5 VH with N61A
VL: B5 VL
Turning to B9, the “% soluble aggregate” value in data set [1] came out at 0%. The “Blocking of Notch1 binding” value was “X” in data set [2] (setting [5]), “+ (Complete blocking)” in data set [2] (setting [6]), “+ (Complete blocking)” in data set [2] (setting [7]) and “+ (Complete blocking)” in data set [2] (setting [4]).

B10: J1-65D variant 6: humanised/de-immunised J1-65D: J1-65D_VL_2 + J1-65D_VH_2 (antibody, V domains shown)
VH: B5 VH with N61A
VL: B5 VL with D57A
For B10, the “% soluble aggregate” value in data set [1] is 0%. Further, the “Blocking of Notch1 binding” value is “X” in data set [2] (setting [5]), “+ (Complete blocking)” in data set [2] (setting [6]), “+ (Complete blocking)” in data set [2] (setting [7]) and “+ (Complete blocking)” in data set [2] (setting [4]).

B11: J1-65D variant 3: humanised/de-immunised J1-65D: J1-65D_VL_1 + J1-65D_VH_3 (antibody, V domains shown)
VH: B5 VH with L11V, N61A, K65Q
VL: B5 VL
Consider B11, for which, in data set [1], the “% soluble aggregate” value stood at 1.67%. Moreover, the “Blocking of Notch1 binding” value in data set [2] (setting [5]) is given as “X”; in data set [2] (setting [6]), “+ (Complete blocking)”; in data set [2] (setting [7]), “+ (Complete blocking)”; in data set [2] (setting [4]) it was “+ (Complete blocking)”.

B12: J1-183D chimeric: chimeric antibody with unaltered CDRs: J1-183D_VL + J1-183D_VH (antibody, V domains shown)
VH: QVQLQQPGTELVRPGVSVKISCKVSGYAFTDYAIHWIMQSHAKSLEWIGIINTYYGDSKYNQKFKDKATMTVDKSSNTAYMELARLTSEDSAIYYCARGYDGFAYWGQGTLVTVSS
VL: DIQLTQSPASLSASVGETVTFTCRTSENIYSYLTWYQQKQGKSPQLLVYNAKILAAGVPSRFSGYGSGTQFSLKINSLQPEDFGTYYCQHHYDIPWTFGGGTKLEIK
For B12, the “% soluble aggregate” value in data set [1] amounted to 1.41%. The “Blocking of Notch1 binding” value is reported as “X” in data set [2] (setting [5]), “+ (Complete blocking)” in data set [2] (setting [6]), “+ (Complete blocking)” in data set [2] (setting [7]) and “+ (Complete blocking)” in data set [2] (setting [4]).
